# Experimental data published in patent CN106699891A (BEIJING MABWORKS BIOTECH CO LTD, dated 2017).
# Target: T1, PD-L1-Fc (UniProt Q9NZQ7 19-238, limits assumed)
# T1 construct: extracellular domain; not shown: Fc fragment of human IgG
# Assay: SPR (Biacore), antibody captured by anti-human Fab on CM5 chip, PD-L1-Fc as analyte, 1:1 binding fit
# T1 sequence (Q9NZQ7 19-238 limits assumed): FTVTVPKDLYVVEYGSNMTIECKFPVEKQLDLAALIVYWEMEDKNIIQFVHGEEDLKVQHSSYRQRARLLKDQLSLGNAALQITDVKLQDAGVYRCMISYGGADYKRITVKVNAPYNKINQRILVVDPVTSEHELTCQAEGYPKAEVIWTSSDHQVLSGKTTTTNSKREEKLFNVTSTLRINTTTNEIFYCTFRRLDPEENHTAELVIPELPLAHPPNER
binder,measurement,value
"Mil85-6抗体 (antibody, V domains shown, also called Mil85-6-5C6; 全抗体) VH: EVQLVESGGGLVQPGGSLRLSCAASGFTFADSWIHWVRQAPGKGLEWVAWISPFGGSNYYADSVKGRFTISADTSKNTAYLQMNSLRAEDTAVYYCARRHWPGGFDYWGQGTLVTVSS VL: DIQMTQSPSSLSASVGDRVTITCRASQSIGTALNWYQQKPGKAPKLLIYTASSLQSGVPSRFSGSGSGTDFTLTISSLQPEDFATYYCQQDNYTPMTFGQGTKVEIK",Kd,0.429 nM
same,koff,0.000195 s⁻¹
same,kon,457000 M⁻¹ s⁻¹
